From patent US12428489 (University of Texas, dated 2025)

Tests used:
PD-L2 on CHO-PD-L2 cells [1] = target: T1, PD-L2 on CHO-PD-L2 cells (human, UniProt Q9BQ51 20-273); test: cell-based or functional assay
T1 sequence: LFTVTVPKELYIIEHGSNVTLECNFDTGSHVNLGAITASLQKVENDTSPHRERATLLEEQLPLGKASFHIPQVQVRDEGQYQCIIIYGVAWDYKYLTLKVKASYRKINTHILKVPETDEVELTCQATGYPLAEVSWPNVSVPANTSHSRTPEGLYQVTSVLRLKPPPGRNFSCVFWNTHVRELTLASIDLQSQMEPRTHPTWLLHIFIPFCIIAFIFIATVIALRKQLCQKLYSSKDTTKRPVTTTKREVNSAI

PD-L2 on CHO-PD-L2 cells [2] = target: T1, PD-L2 on CHO-PD-L2 cells; test: cell-based or functional assay; remark: listed apart in the source
Cyno PD-L2-Fc = target: T2, Cyno PD-L2-Fc (cyno, UniProt A0A2K5U5Z4 20-220); test: ForteBio Octet, IgG KD, Cyno PD-L2-Fc, avid
T2 construct: not shown: Fc part
T2 sequence: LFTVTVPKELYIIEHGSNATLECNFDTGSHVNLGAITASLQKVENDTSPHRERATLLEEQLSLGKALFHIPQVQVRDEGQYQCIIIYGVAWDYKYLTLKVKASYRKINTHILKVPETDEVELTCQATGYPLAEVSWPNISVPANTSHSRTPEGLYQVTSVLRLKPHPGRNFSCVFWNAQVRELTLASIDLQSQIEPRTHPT
Protocol: (§1) ForteBio K_D measurements—ForteBio affinity measurements were performed on an Octet RED384 generally as previously described (see, e.g., Estep et al., High throughput solution-based measurement of antibody-antigen affinity and epitope binning. Mabs 5(2), 270-278 (2013)). Briefly, ForteBio affinity measurements were performed by loading IgGs on-line onto AHQ sensors. Sensors were equilibrated off-line in assay buffer for 30 min and then monitored on-line for 60 seconds for baseline establishment. Sensors with loaded IgGs were exposed to 100 nM antigen for 3 minutes, and afterwards were transferred to assay buffer for 3 min for off-rate measurement. For monovalent affinity assessment Fabs were used instead of IgGs. For this assessment the unbiotinylated Fc fusion antigen was loaded on-line onto the AHQ sensors. Sensors were equilibrated off-line in assay buffer for 30 min and then monitored on-line for 60 seconds for baseline establishment. Sensors with loaded antigen were exposed to 100 nM Fab for 3 minutes, and afterwards they were transferred to assay buffer for 3 min for off-rate measurement. All kinetics were analyzed using the 1:1 binding model.

Human PD-L2-Fc [3] = target: T3, Human PD-L2-Fc (human, UniProt Q9BQ51 20-220); test: ForteBio Octet, IgG KD, Human PD-L2-Fc, avid
T3 construct: also called Fc fusion antigen; not shown: Fc part
T3 sequence: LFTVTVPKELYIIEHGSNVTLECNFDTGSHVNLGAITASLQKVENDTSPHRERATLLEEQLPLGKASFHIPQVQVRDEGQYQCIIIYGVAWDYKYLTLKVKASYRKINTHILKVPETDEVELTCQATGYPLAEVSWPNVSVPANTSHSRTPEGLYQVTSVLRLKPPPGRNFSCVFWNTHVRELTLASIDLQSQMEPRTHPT

Mouse PD-L2-Fc = target: T4, Mouse PD-L2-Fc (mouse, UniProt Q9WUL5 20-219); test: ForteBio Octet, IgG KD, Mouse PD-L2-Fc, avid
T4 construct: not shown: Fc part
T4 sequence (looked up): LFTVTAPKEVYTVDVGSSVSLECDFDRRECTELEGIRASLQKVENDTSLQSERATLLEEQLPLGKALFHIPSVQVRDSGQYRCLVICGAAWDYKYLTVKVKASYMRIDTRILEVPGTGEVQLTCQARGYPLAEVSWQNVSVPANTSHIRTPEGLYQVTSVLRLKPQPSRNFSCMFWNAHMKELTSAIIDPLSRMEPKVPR

Human PD-L2-HIS = target: T5, Human PD-L2-HIS (human, UniProt Q9BQ51 20-220); test: IgG KD, Human PD-L2-HIS, monovalent (method not named in the table: ForteBio or MSD-SET)
T5 construct: also called HIS-tagged protein (human PD-L2); not shown: HIS tag
T5 sequence: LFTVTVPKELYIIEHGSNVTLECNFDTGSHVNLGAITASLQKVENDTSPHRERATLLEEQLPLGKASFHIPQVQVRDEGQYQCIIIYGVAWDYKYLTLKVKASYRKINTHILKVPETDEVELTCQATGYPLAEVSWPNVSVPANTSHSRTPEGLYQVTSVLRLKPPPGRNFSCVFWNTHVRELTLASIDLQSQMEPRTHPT

human PD-L2 protein = target: T6, human PD-L2 protein (human, UniProt Q9BQ51 20-220, limits assumed); test: MFI against Ab nM; legend: binding to human PD-L2 protein, maximum fluorescence intensity, ForteBio Octet
T6 construct: also called analyte (PD-L2)
T6 sequence: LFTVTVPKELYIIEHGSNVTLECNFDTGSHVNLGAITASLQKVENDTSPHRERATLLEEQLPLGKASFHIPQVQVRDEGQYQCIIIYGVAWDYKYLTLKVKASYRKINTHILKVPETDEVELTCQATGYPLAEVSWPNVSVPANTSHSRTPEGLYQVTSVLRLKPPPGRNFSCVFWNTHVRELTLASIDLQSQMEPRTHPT
Protocol: Antibody Screening and Characterization. Antibody candidates generated from the presentation methods described above were tested for the capacity to bind to PD-L2 and block its binding to PD-1. 5 µg/mL of antibody was bound to CHO-PD-L2 cells and then recombinant PD-1 (RnD Systems) labelled with Alexa 532 (ThermoFisher) was added for 1 hour. PD-1 maximum fluorescence intensity was measured. Blockade of PD-1 binding was measured by reduction in Alexa 532 fluorescence by flow cytometry. […] The binding and release of the analyte (PD-L2) are recorded by the Octet instrument in real time and then used to calculate the KD, $Kon$, and $Kdis$; results are derived from 2:1 Global Fit Modeling with reference well subtraction. […]
PD-L2 antibodies avidly bind human PD-L2. […] Antibody subclones were immobilized on Anti-Human Fc Capture (AHC) Biosensors at 100 nM (15 μg/mL), and human PD-L2 protein association and dissociation was tested in dilution series from 30-0.37 nM (FIGS. 4A-B).

PD-L2 on CHO-PD-L2 cells [4] = target: T1, PD-L2 on CHO-PD-L2 cells; test: cell-based or functional assay; remark: listed apart in the source
PD-L2 on CHO-PD-L2 cells [5] = target: T1, PD-L2 on CHO-PD-L2 cells; test: cell-based or functional assay; remark: listed apart in the source
PD-L2 on CHO-PD-L2 cells [6] = target: T1, PD-L2 on CHO-PD-L2 cells; test: cell surface binding, panel 'Binding Assay PD-L2', MFI against Ab nM (flow cytometry on PD-L2 expressing cells)
Human PD-L2-Fc [7] = target: T3, Human PD-L2-Fc; test: ForteBio Octet, Fab KD, Human PD-L2-Fc on sensor, monovalent
Protocol: as §1

PD-L2 on CHO-PD-L2 cells [8] = target: T1, PD-L2 on CHO-PD-L2 cells; test: competition assay by flow cytometry: antibody against Biotin-rhPD-1-Fc on PD-L2 expressing cells, Streptavidin-APC; axis 'Antibodies µg (logX)'

| Binder | EC50 (read off the curve) (PD-L2 on CHO-PD-L2 cells [2]) [nM] | Kd (Cyno PD-L2-Fc) [nM] | Kd (Human PD-L2-Fc [3]) [nM] | Kd (Mouse PD-L2-Fc) [nM] | Kd (Human PD-L2-HIS) [nM] | EC50 (read off the curve) (human PD-L2 protein) [nM] | Kd (Human PD-L2-Fc [7]) [nM] | other results |
| --- | --- | --- | --- | --- | --- | --- | --- | --- |
| ADI-20816 (anti-PD-L2 antibody 20816), IgG (antibody, V domains shown, Tested as full-length IgG; Clone family 55-g1) VH: QVQLVQSGAEVKKPGSSVKVSCKASGGTFSSYLIAWVRQAPGQGLEWMGGIIPHFGVANYAQKFQGRVTITADESTSTAYMELSSLRSEDTAVYYCARVPQYHGYFDLWGRGTLVTVSS VL: DIQMTQSPSSVSASVGDRVTITCRASQGISSWLAWYQQKPGKAPKLLIYAASNLQSGVPSRFSGSGSGTDFTLTISSLQPEDFATYYCQQGNSFPTFGGGTKVEIK | ~0.3 | 0.296 | 0.116 | 21.6 | 0.052 | ~0.9 | – | IC50 (Promega PD-1:PD-L2 bioassay, luciferase) [Cont'd] (PD-L2 on CHO-PD-L2 cells [1]): 0.38 nM |
| ADI-20810 (anti-PD-L2 antibody 20810), IgG (antibody, V domains shown, Tested as full-length IgG) VH: not shown VL: EIVLTQSPATLSLSPGERATLSCRASQSVSSYLAWYQQKPGQAPRLLIYDASNRATGIPARFSGSGSGTDFTLTISSLEPEDFAVYYCQQVVTLPPTFGGGTKVEIK | ~0.2 | 0.3 | 0.331 | 0.503 | 0.0025 | ~0.7 | – | IC50 (Promega PD-1:PD-L2 bioassay, luciferase) (PD-L2 on CHO-PD-L2 cells [4]): 0.41 nM; EC50 (read off the curve) (PD-L2 on CHO-PD-L2 cells [5]): ~0.4 nM; EC50 (read off the curve) (PD-L2 on CHO-PD-L2 cells [6]): ~0.7 nM |
| ADI-20811 (anti-PD-L2 antibody 20811), IgG (antibody, V domains shown, Tested as full-length IgG) VH: QVQLVQSGAEVKKPGSSVKVSCKASGGTFSSAAIHWVRQAPGQGLEWMGGIIPIFGLAQYAQKFQGRVTITADESTSTAYMELSSLRSEDTAVYYCARLPRTWSAFDIWGQGTMVTVSS VL: EIVLTQSPATLSLSPGERATLSCRASQSVSSYLAWYQQKPGQAPRLLIYDASNRATGIPARFSGSGSGTDFTLTISSLEPEDFAVYYCQQVVTLPPTFGGGTKVEIK | ~0.2 | 0.231 | 0.248 | 0.259 | 0.0085 | ~0.3 | – | IC50 (Promega PD-1:PD-L2 bioassay, luciferase) (PD-L2 on CHO-PD-L2 cells [4]): 0.24 nM |
| ADI-20811 Fab (Fab, V domains shown) VH: QVQLVQSGAEVKKPGSSVKVSCKASGGTFSSAAIHWVRQAPGQGLEWMGGIIPIFGLAQYAQKFQGRVTITADESTSTAYMELSSLRSEDTAVYYCARLPRTWSAFDIWGQGTMVTVSS VL: EIVLTQSPATLSLSPGERATLSCRASQSVSSYLAWYQQKPGQAPRLLIYDASNRATGIPARFSGSGSGTDFTLTISSLEPEDFAVYYCQQVVTLPPTFGGGTKVEIK | – | – | – | – | – | – | 0.21 | – |
| anti-PD-L2 antibody 16510 (antibody, human IgG1, V domains shown) VH: QVQLVQSGAEVKKPGSSVKVSCKASGGTFSSYAISWVRQAPGQGLEWMGGIIPIFGTANYAQKFQGRVTITADESTSTAYMELSSLRSEDTAVYYCARVQKQYTYFDLWGRGTLVTVSS VL: DIQLTQSPSSLSASVGDRVTITCQASQDISNFLNWYQQKPGKAPKLLIYDASNLETGVPSRFSGSGSGTDFTFTISSLQPEDIATYYCQQLVGAPPTFGGGTKVEIK | – | – | – | – | – | – | – | IC50 (read off the curve) (PD-L2 on CHO-PD-L2 cells [8]): ~0.006 µg |
| ADI-20816 Fab (Fab, V domains shown) VH: QVQLVQSGAEVKKPGSSVKVSCKASGGTFSSYLIAWVRQAPGQGLEWMGGIIPHFGVANYAQKFQGRVTITADESTSTAYMELSSLRSEDTAVYYCARVPQYHGYFDLWGRGTLVTVSS VL: DIQMTQSPSSVSASVGDRVTITCRASQGISSWLAWYQQKPGKAPKLLIYAASNLQSGVPSRFSGSGSGTDFTLTISSLQPEDFATYYCQQGNSFPTFGGGTKVEIK | – | – | – | – | – | – | 0.268 | – |
| ADI-20810 Fab (Fab, V domains shown) VH: not shown VL: EIVLTQSPATLSLSPGERATLSCRASQSVSSYLAWYQQKPGQAPRLLIYDASNRATGIPARFSGSGSGTDFTLTISSLEPEDFAVYYCQQVVTLPPTFGGGTKVEIK | – | – | – | – | – | – | 0.267 | – |
